We go through six molecules from publication PMC10603135, “Phosphorylation-dependent pseudokinase domain dimerization drives full-length MLKL oligomerization” (Nature Communications, 2023).

Series [1] concerns the target full-length human MLKL (residues 2-471) T357E/S358E mutant (human) (UniProt Q8NB16). Briefly: SEC; full-length MLKL (WT or T357E/S358E) co-expressed with RIPK3 kinase domain in Sf21, purified by GST on MLKL, tag cleaved, HiLoad Superdex 200 in SEC buffer; fractions on reducing SDS-PAGE.
In series [2] the target is phosphorylated human MLKL (p-MLKL) pseudokinase domain (190-471) (human) (UniProt Q8NB16). Briefly: SEC; purified pseudokinase domain on Superdex 200 in 20 mM HEPES pH 7.5, 200 mM NaCl, 5% v/v glycerol.
Series [3] has the same target. As to the kind of experiment: SEC-SAXS; p-MLKL pseudokinase domain, 40 uL of 7.2 mg/mL, inline Superdex 200 Increase 5/150, 0.2 M NaCl, 20 mM HEPES pH 7.5, 5% v/v glycerol, 283 K.
The target in series [4] is unphosphorylated human MLKL pseudokinase domain (residues 190-471) (human) (UniProt Q8NB16). As to the kind of experiment: SEC-SAXS; MLKL pseudokinase domain:Mb27 complex pre-purified on Superdex 75, 50 uL of 5.6 mg/mL, inline Superdex 200 Increase 5/150, 0.2 M NaCl, 20 mM HEPES pH 7.5, 5% v/v glycerol, 283 K.
The target of series [5] is MLKL (mixed lineage kinase domain-like) pseudokinase domain, 190-471 (UniProt Q8NB16). Briefly: size-exclusion chromatography. The following applies: reference: p-MLKL pseudokinase domain; sites T357,S358,T355,S360.
Series [6] concerns the molecule itself. Briefly: SEC; full-length MLKL expressed alone in Sf21, purified, HiLoad Superdex 200 in SEC buffer.
Series [7] concerns the molecule itself. Briefly: SEC; full-length MLKL (WT or T357E/S358E) co-expressed with RIPK3 kinase domain in Sf21, purified by GST on MLKL, tag cleaved, HiLoad Superdex 200 in SEC buffer; fractions on reducing SDS-PAGE.

Take “human RIPK3 kinase domain (residues 1-316; C3S, C110A), co-expressed with full-length MLKL (from UniProt Q9Y572 1-316) (domain or fragment)”: the stoichiometry N (RIPK3 per MLKL (1:1)) in series [1] worked out at 1. As for “phosphorylated human MLKL (p-MLKL) pseudokinase domain (190-471) (from UniProt Q8NB16 190-471) (domain or fragment)”, the stoichiometry N in series [2] and in series [3] was 2 in each case. With “unphosphorylated human MLKL pseudokinase domain (residues 190-471) (from UniProt Q8NB16 190-471) (domain or fragment)”, the stoichiometry N in series [4] came to 2. For the molecule “MLKL (mixed lineage kinase domain-like) pseudokinase domain, 190-471 (from UniProt Q8NB16) λ phosphatase treated p-MLKL”, the “binding against the reference” value in series [5] was “lost”.

B1: recombinant full-length human MLKL (residues 2-471), wild-type (natural protein, UniProt Q8NB16 2-471, looked up)
chain: ENLKHIITLGQVIHKRCEEMKYCKKQCRRLGHRVLGLIKPLEMLQDQGKRSVPSEKLTTAMNRFKAALEEANGEIEKFSNRSNICRFLTASQDKILFKDVNRKLSDVWKELSLLLQVEQRMPVSPISQGASWAQEDQQDADEDRRAFQMLRRDNEKIEASLRRLEINMKEIKETLRQYLPPKCMQEIPQEQIKEIKKEQLSGSPWILLRENEVSTLYKGEYHRAPVAIKVFKKLQAGSIAIVRQTFNKEIKTMKKFESPNILRIFGICIDETVTPPQFSIVMEYCELGTLRELLDREKDLTLGKRMVLVLGAARGLYRLHHSEAPELHGKIRSSNFLVTQGYQVKLAGFELRKTQTSMSLGTTREKTDRVKSTAYLSPQELEDVFYQYDVKSEIYSFGIVLWEIATGDIPFQGCNSEKIRKLVAVKRQQEPLGEDCPSELREIIDECRAHDPSVRPSVDEILKKLSTFSK
notes: human MLKL, called full-length, residues 2-471; Expressed alone it elutes primarily as monomers with a smaller proportion of tetramers; with Mb27 all as tetramers; also called full-length MLKL; MLKL alone; source: Sf21 insect cells, expressed alone or co-expressed with Mb27, purified (glutathione resin, TEV cleavage, SEC); not shown: GST, N-terminal, cleaved
For the molecule B1, in series [6], the “stoichiometry N” value came to 4.

B2: full-length human p-MLKL tetramer (wild-type MLKL 2-471 co-expressed with RIPK3 kinase domain) (natural protein, UniProt Q8NB16 2-471, looked up)
chain: ENLKHIITLGQVIHKRCEEMKYCKKQCRRLGHRVLGLIKPLEMLQDQGKRSVPSEKLTTAMNRFKAALEEANGEIEKFSNRSNICRFLTASQDKILFKDVNRKLSDVWKELSLLLQVEQRMPVSPISQGASWAQEDQQDADEDRRAFQMLRRDNEKIEASLRRLEINMKEIKETLRQYLPPKCMQEIPQEQIKEIKKEQLSGSPWILLRENEVSTLYKGEYHRAPVAIKVFKKLQAGSIAIVRQTFNKEIKTMKKFESPNILRIFGICIDETVTPPQFSIVMEYCELGTLRELLDREKDLTLGKRMVLVLGAARGLYRLHHSEAPELHGKIRSSNFLVTQGYQVKLAGFELRKTQTSMSLGTTREKTDRVKSTAYLSPQELEDVFYQYDVKSEIYSFGIVLWEIATGDIPFQGCNSEKIRKLVAVKRQQEPLGEDCPSELREIIDECRAHDPSVRPSVDEILKKLSTFSK
modifications: phosphorylated by co-expressed RIPK3 (sites not printed for the full-length protein); disulfide-linked via C184
notes: human MLKL, called full-length, residues 2-471; The purified tetramer carries sub-stoichiometric RIPK3 kinase domain; also called wild-type p-MLKL tetramer; MLKL (WT):RIPK3; source: Sf21 insect cells, co-expressed with RIPK3 kinase domain, purified (glutathione resin, TEV cleavage, SEC); not shown: GST, N-terminal, cleaved
Regarding B2, the “stoichiometry N” value in series [7] stood at 4.
